The results in this text go back to article PMC5133854.

Series [1] concerns the target purified porcine gastric mucin (pPGM) (porcine). The series is described as follows: AFM single-molecule force spectroscopy; Gal-3 covalently attached to the AFM tip, pPGM covalently attached to the glass slide; PBS pH 7.4; force-volume mode.
Series [2] relates to Q9RGN5. The series is described as follows: AFM single-molecule force spectroscopy; MUB covalently attached to both the AFM tip and the glass slide; PBS pH 7.4; force-volume mode; repeated after adding free MUB (0.05 mg/mL) or anti-Mub antibody (0.05 mg/mL). The note with it: other: AFM single-molecule force spectroscopy.
Series [3] has as its target mucus-binding protein (MUB) from Lactobacillus reuteri ATCC 53608 (Lactobacillus reuteri ATCC 53608) (UniProt Q9RGN5). The series is described as above.
The target of series [4] is purified porcine gastric mucin (pPGM) (porcine). Put plainly: AFM single-molecule force spectroscopy; MUB covalently attached to the AFM tip, pPGM covalently attached to the glass slide; PBS pH 7.4; force-volume mode, 2 um/s, 1024 force-distance curves; repeated on the same region after adding free sugars or anti-Mub antibody (0.05 mg/mL).

As to “Galectin-3 (Gal-3) (from UniProt P17931 1-250) (natural protein)”, in series [1], the binding energy came out at 0.79 aJ and the energy (integration of the adhesive peaks) is 3.08 aJ.

As to “mucus-binding protein (MUB) from Lactobacillus reuteri ATCC 53608”, in series [2], the “percent of force curves with unfolding events” value is “the numbers of unfolding events in the force volume maps were 71% of the 1024 force curves”.

As for “mucus-binding protein (MUB) from Lactobacillus reuteri ATCC 53608 (from UniProt Q9RGN5 1-3269) (natural protein)”, the modal value of the rupture adhesion force in series [3] was 209 pN; in series [4], 380 pN. The substance also returned a modal value of the rupture adhesion force (PBS, before the antibody) in series [4] of 482 pN.
